In US12473545B2, “Regulation of RAN translation by PKR and eIF2α-P pathways” (University of Florida Research Foundation, Incorporated, priority 2017, dated 2025):
Entries after “also recorded” stand apart in the source; their conditions may differ.

Experiments:
RAN translation = test: Immunoblot of RAN protein levels in HEK293T cells transfected with repeat expansion constructs; format: cell-based; details: for RAN polyGP levels: HEK293T transiently transfected with G4C2 expansion construct, dose series; for polyLPAC RAN protein levels: CCTG (CCUG) expansion construct; for polyGP RAN protein levels: GGGGCC (G4C2) expansion construct
Source text: Diagrams of CAG, CCTG and GGGCC repeat expansion constructs used to test effects of protein kinase R (PKR) on repeat associated non-ATG (RAN) translation are shown in FIG. 1A. Briefly, constructs have a 6× stop-codon cassette (e.g., two stops in each reading frame, upstream of the repeat expansions and C-terminal epitope tags). A diagram of PKR vectors expressing wildtype (PKR-WT), the dominant negative K296R mutant form of PKR (PKR-K296R), or the C-terminal only domain (PKR-CT) are shown in FIG. 1B.
(§1) HEK293T cells were transfected with RAN protein-expressing and PKR-expressing constructs.
(§2) HEK293T cells were cultured in DMEM medium supplemented with 10% fetal bovine serum and incubated at 37° C. in a humid atmosphere containing 5% CO2. DNA transfections were performed using Lipofectamine 2000 Reagent (Invitrogen) according to the manufacturer's instructions.
(§3) Transfected cells in each well of a six-well tissue-culture plate were rinsed with PBS and lysed in 300 μL RIPA buffer with protease inhibitor cocktail for 45 min on ice. DNA was sheared by passage through a 21-gauge needle. The cell lysates were centrifuged at 16,000×g for 15 min at 4° C., and the supernatant was collected. The protein concentration of the cell lysate was determined using the protein assay dye reagent (Bio-Rad). Twenty micrograms of protein were separated in a 4-12% NuPAGE Bis-Tris gel (Invitrogen) and transferred to a nitrocellulose membrane (Amersham). The membrane was blocked in 5% dry milk in PBS containing 0.05% Tween-20 (PBS-T) and probed with the anti-Flag (1:2000), anti-Myc (1:1000), anti-HA (1:1000), or rabbit polyclonal antibodies (1:1000) in blocking solution. After the membrane was incubated with anti-rabbit or anti-mouse HRP-conjugated secondary antibody (Amersham), bands were visualized by the ECL plus Western Blotting Detection System (Amersham).
Next, the effects of PKR overexpression and inhibition on RAN protein accumulation across several types of repeat expansions were tested. […] For CAGEXP expressing cells, PKR-WT overexpression led to increased p-PKR and p-eIF2α, and increased RAN polyAla protein levels. In contrast, expression of the dominant-negative PKR-K296R mutation decreased polyAla RAN protein levels. […] The polyGln reading frame, which contains an AUG initiation codon, is not affected by PKR (FIG. 7A).
. […] Protein blots were run on protein lysates from HEK293T cells transfected with various repeat expansion constructs shown in FIG. 13A. In FIG. 13B, the lanes labeled KMQ, show: RAN poly-Ser-Flag, RAN poly-Ala-HA, ATG initiated polyGln-Myc. In FIG. 13B the lanes labeled KMQ has a methionine encoding ATG immediately 5′ to the CAG repeat expansion and located within the polyGln reading frame. The lanes labeled KKQ indicate the KKQ vector contains a CAG expansion without an AUG initiation codon, and indicates: RAN polySer-Flag, RAN polyAla-HA, RAN polyGln-Myc. These constructs contain epitope tags that are incorporated into the C-terminal regions of the ATG-initiated poly-Gln and non-ATG initiated RAN proteins (poly-Gln, poly-Leu-Pro-Ala-Cys and poly-Gly-Pro) which are expressed across these repeat expansions. The lane labeled CCTG expresses the following RAN proteins: RAN polyLPAC-Flag, RAN polyLPAC-HA, RAN polyLPAC-Myc. The lane labeled G4C2 is designed to detect the following RAN proteins: RAN polyGP-Flag, RAN polyGR-HA, RAN polyGA-Myc. […]

PKR = molecular target: T1, PKR (Homo sapiens, UniProt P19525); test: Protein blot of phospho-PKR (T446 and T451) in HEK293T cells transfected with repeat expansion constructs; format: cell-based; details: for G4C2 repeat-expansion induced p-PKR levels: HEK293T, G4C2 expansion construct, dose series
T1 construct: endogenous in cells; host or cells: HEK293T
Method: as §2, §3
Therefore, the ability of other RAN positive repeat expansions to activate PKR and the role of PKR on RAN translation were tested.
[…]. Transient transfections of expansion constructs treated with or without metformin were performed. […].

[1] = system: glycine-proline (GP) RAN protein; test: GP RAN protein levels in peripheral blood leukocytes of a C9ORF72 expansion-positive human subject; format: in vivo; details: single human subject; 500 or 1000 mg/day Metformin Hydrochloride Extended Release Tablets; 10 to 30 days; vs pretreatment
Source text: […]. […] […].

eIF2α = test: Immunoblot of phosphorylated eIF2α in transfected HEK293T cells; format: cell-based; details: HEK293T co-transfected with repeat expansion constructs
Method: as §1, §2
as §3, with “System (Amersham). […]” for “System (Amersham).”

C9-500 BAC mice = test: ICV injection of AAV expressing PKR-K296R in C9-500 BAC transgenic mice; format: in vivo; details: for GA RAN protein aggregates in the retrosplenial cortex (IHC): analysis at 3 months; for open field center time: vs C9 EGFP control animals
Source text: Schematic diagrams of AAV2/9 constructs used for rAAV injections into a BAC transgenic mouse model of C9orf72 ALS/FTD containing 500 G4C2 repeats (C9-500 BAC) are shown in FIG. 3A. Briefly, animals were sacrificed for analysis at 3 months of age after […] intracerebral ventricular (ICV) injections with AAV2/9 virus expressing either EGFP or the dominant negative form of PKR(K296R).
Representative immunohistochemical (IHC) staining of GA RAN protein aggregates in sections of the retrosplenial cortex from C9-500 BAC mice (FIG. 3B, left). Quantification of GA RAN protein aggregates was also performed (FIG. 3B, right). Analysis was done in a blinded fashion.
AAV vectors expressing the PKR under the control of the cytomegalovirus enhance/chicken beta actin (CBA) promoter, a woodchuck hepatitis virus post-transcriptional-regulatory element (WPRE), and the bovine growth hormone polyA were generated by Polyethylenimine Linear (PEI, Polysciences) transfection into HEK293T cells. Cells were co-transfected with AAV helper plasmids pDP8.ape to produce recombinant adeno-associated viral (rAAV) vector rAAV2/8.
Neonatal pups were injected within 0-12 hours after birth. The naive pups were covered in aluminum foil and completely surrounded in ice for 3-4 minutes, resulting in the body temperature being lowered to <10° C. The pups were considered completely cryoanesthetized when all movement stops and the skin color changes from pink to purple. 2 μl of virus ([…]) was slowly injected into the ventricle using 10 μl syringes (30 degree beveled). After injection pups were allowed to completely recover on a warming blanket and then returned to the home cage.
rAAV-mediated delivery of dominant negative PKR-K296R, or EGFP as a control, was performed using intracerebroventricular (ICV) injections at P0 in C9orf72 ALS/FTD BAC transgenic mice (C9-BAC) and non-transgenic (NT) littermate controls. A schematic depiction of each construct is described in FIG. 10A. Four groups of animals (EGFP/C9, EGFP/NT, PKR-K296R/C9 and PKR-K296R/NT) were aged to 3 months. […] Similarly, soluble GP levels, detected by meso-scale detection (MSD) assays, were reduced in brain lysates from C9 PKR-K296R treated animals compared to C9 EGFP controls.

[2] = HEK293T, CAG expansion construct

T1 sequence (P19525 whole entry): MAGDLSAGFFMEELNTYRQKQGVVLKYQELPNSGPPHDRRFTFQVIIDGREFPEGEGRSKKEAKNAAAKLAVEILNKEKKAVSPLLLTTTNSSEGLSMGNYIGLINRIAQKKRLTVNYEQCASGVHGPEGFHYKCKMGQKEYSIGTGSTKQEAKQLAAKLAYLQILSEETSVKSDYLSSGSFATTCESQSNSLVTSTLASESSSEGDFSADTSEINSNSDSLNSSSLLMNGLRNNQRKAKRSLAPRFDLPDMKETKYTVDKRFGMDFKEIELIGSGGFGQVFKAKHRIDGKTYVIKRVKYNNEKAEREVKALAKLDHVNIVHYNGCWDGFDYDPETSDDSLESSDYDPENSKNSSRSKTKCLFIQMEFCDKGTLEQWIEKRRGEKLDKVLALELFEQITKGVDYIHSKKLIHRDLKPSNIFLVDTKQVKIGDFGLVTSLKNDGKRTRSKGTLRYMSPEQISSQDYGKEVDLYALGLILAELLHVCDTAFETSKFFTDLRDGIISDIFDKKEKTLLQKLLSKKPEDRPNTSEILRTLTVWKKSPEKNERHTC

Molecule: CCCCNC(=N)NC(=N)N [buformin, reference compound]
- RAN polyGP levels (RAN translation): dose-dependent inhibition
- G4C2 repeat-expansion induced p-PKR levels (PKR): dose-dependent inhibition

Molecule: O=C(COc1ccc(Cl)cc1)NC1CCC(NC(=O)COc2ccc(Cl)cc2)CC1 (stereo not drawn) [ISRIB, reference compound]
- polyAla RAN protein levels (RAN translation; HEK293T transfected with expanded CAG and PKR-WT constructs): reduces
- polyAla RAN protein levels (RAN translation; HEK293T transfected with expanded CAG and PKR-WT constructs, listed as ISIRB): decrease

Molecule: [H]/N=C(/N)N/C(=N/[H])NCCc1ccccc1 [phenformin, reference compound]
- RAN polyGP levels (RAN translation): dose-dependent inhibition
- G4C2 repeat-expansion induced p-PKR levels (PKR): dose-dependent inhibition

Molecule: CN(C)C(=N)NC(=N)N [metformin, reference compound]
- RAN protein levels (RAN translation; HEK293T cells expressing CAG, CCUG or G4C2 expansion RNAs, protein blot): decreases
- RAN polyGP levels (RAN translation): dose-dependent inhibition
- polyAla RAN protein levels (RAN translation; [2]): reduced RAN protein levels
- polyLPAC RAN protein levels (RAN translation; HEK293T): reduced RAN protein levels
- polyGP RAN protein levels (RAN translation; HEK293T): reduced RAN protein levels
- PKR phosphorylation at T446 and T451 (PKR; HEK293T transiently transfected with expansion constructs, with or without metformin): decreases
- G4C2 repeat-expansion induced p-PKR levels (PKR): dose-dependent inhibition
- glycine-proline (GP) RAN protein levels in leukocyte lysates from peripheral blood [1]: Dose dependent reduction

B1: TARBP2: PKR inhibitor, transactivation response element RNA-binding protein, overexpressed by co-transfection (protein, UniProt Q15633 1-366, looked up)
RISC-loading complex subunit …: MSEEEQGSGTTTGCGLPSIEQMLAANPGKTPISLLQEYGTRIGKTPVYDLLKAEGQAHQPNFTFRVTVGDTSCTGQGPSKKAAKHKAAEVALKHLKGGSMLEPALEDSSSFSPLDSSLPEDIPVFTAAAAATPVPSVVLTRSPPMELQPPVSPQQSECNPVGALQELVVQKGWRLPEYTVTQESGPAHRKEFTMTCRVERFIEIGSGTSKKLAKRNAAAKMLLRVHTVPLDARDGNEVEPDDDHFSIGVGSRLDGLRNRGPGCTWDSLRNSVGEKILSLRSCSLGSLGALGPACCRVLSELSEEQAFHVSYLDIEELSLSGLCQCLVELSTQPATVCHGSATTREAARGEAARRALQYLKIMAGSK
- RAN polyAla levels expressed from CAG and CUG (CTG) expansions (RAN translation; HEK293T co-transfection, overexpression): decreases
- polyLPAC RAN protein levels (RAN translation; HEK293T): decreases
- steady state levels of eIF2α-P (p-eIF2α) (eIF2α): reduces; also recorded: decrease

B2: PKR-K296R: dominant negative K296R mutant form of protein kinase R, expressed from plasmid or AAV vector (protein, UniProt P19525 2-551, looked up, variant K296R)
Interferon-induced, …: AGDLSAGFFMEELNTYRQKQGVVLKYQELPNSGPPHDRRFTFQVIIDGREFPEGEGRSKKEAKNAAAKLAVEILNKEKKAVSPLLLTTTNSSEGLSMGNYIGLINRIAQKKRLTVNYEQCASGVHGPEGFHYKCKMGQKEYSIGTGSTKQEAKQLAAKLAYLQILSEETSVKSDYLSSGSFATTCESQSNSLVTSTLASESSSEGDFSADTSEINSNSDSLNSSSLLMNGLRNNQRKAKRSLAPRFDLPDMKETKYTVDKRFGMDFKEIELIGSGGFGQVFKAKHRIDGKTYVIRRVKYNNEKAEREVKALAKLDHVNIVHYNGCWDGFDYDPETSDDSLESSDYDPENSKNSSRSKTKCLFIQMEFCDKGTLEQWIEKRRGEKLDKVLALELFEQITKGVDYIHSKKLIHRDLKPSNIFLVDTKQVKIGDFGLVTSLKNDGKRTRSKGTLRYMSPEQISSQDYGKEVDLYALGLILAELLHVCDTAFETSKFFTDLRDGIISDIFDKKEKTLLQKLLSKKPEDRPNTSEILRTLTVWKKSPEKNERHTC
- polyAla RAN protein levels (RAN translation; [2]): decreased
- polyAla RAN protein levels (RAN translation; HEK293T, CAG expansion construct, listed as K296R PKR): decreases
- ATG-initiated polyGln protein levels (RAN translation; HEK293T, CAG expansion with ATG in polyGln frame): not affected
- polyQAGR RAN protein levels (RAN translation; HEK293T, CAGG expansion construct): decreased
- polyLPAC RAN protein levels (RAN translation; HEK293T): decreased
- polyLPAC RAN protein levels (RAN translation; HEK293T, listed as K296R PKR): decreases
- polyGP RAN protein levels (RAN translation; HEK293T): decreased
- polyGP RAN protein levels (RAN translation; HEK293T, listed as K296R PKR): decreases
- steady state levels of eIF2α-P (p-eIF2α) (eIF2α): decreases
- DigiGait parameters (of 15) significantly different between C9 PKR-K296R and NT treatment groups (C9-500 BAC mice; 12 weeks): 2
- DigiGait parameters improved, of 15 that differed between untreated C9-500 and NT EGFP controls (C9-500 BAC mice; 12 weeks): nine of these parameters improved
- soluble GP levels in brain lysates (MSD) (C9-500 BAC mice; neonatal ICV AAV injection, 3 months, vs C9 EGFP controls): reduced
- GA RAN protein aggregates in the retrosplenial cortex (IHC) (C9-500 BAC mice; neonatal ICV AAV injection, vs C9 EGFP controls): decreased numbers of GA aggregates
- GA RAN protein aggregates in the retrosplenial cortex (IHC) (C9-500 BAC mice; neonatal ICV AAV injection, vs C9 EGFP controls, listed as PKR(K296R)): fewer GA RAN protein aggregates
- open field center time (C9-500 BAC mice): increased center time
- open field center time (C9-500 BAC mice; listed as PKR(K296R)): reduced center time
